Read-outs that look alike come from different tables or passages of the source. Numbered stars: 1 amine (or outer) side, 2 acyl side, 3 side chain; on linkers, the order of the positions; unused ones are H or OH. Bridge positions count the residues as written; N and C are the ends. Square brackets hold non-standard residues; d marks the D form. Ends that are not written are not given here. dNle(6-ylidene) = O=C([C@@H](CCCC=[*:3])N[*:1])[*:2]; Gly(pent-4-enyl) = C=CCCC[C@H](N)C(=O)O; Lys(N3) = [N-]=[N+]=NCCCC[C@H](N)C(=O)O; hPhe = N[C@@H](CCc1ccccc1)C(=O)O; Cit = NC(=O)NCCC[C@H](N)C(=O)O; AllylGly = C=CC[C@H](N)C(=O)O; Aoc(2) = CCCCCC[C@H](N)C(=O)O; Pra = C#CC[C@H](N)C(=O)O
Key:
[1] = molecular target: T1, LSD1_(172-833), lysine-specific demethylase 1 (human, UniProt O60341-1 172-833); assay: SPR; LSD1 immobilised by amine coupling on CM5 (12 000-15 000 RU), peptides injected; TBS-T (25 mM Tris, 150 mM HCl as printed, 0.05% Tween-20, 1 mM DTT, pH 8.0), 15 °C; 1:1 Langmuir model or steady state; highest tested concentration 200 μM; details: both partners purified
[2] = molecular target: T2, LSD1_(172-833), lysine-specific demethylase 1 (human, UniProt O60341-1 172-833); assay: as above; details: both partners purified; remark: listed apart in the source
[3] = molecular target: T1, LSD1_(172-833), lysine-specific …; assay: as above; details: both partners purified; remark: listed apart in the source
[4] = molecular target: T1, LSD1_(172-833), lysine-specific …; assay: enzyme inhibition kinetics (HRP-coupled fluorescence demethylation assay); 25 nM LSD1, substrate H3K4me1_(1-21), 25 mM Tris, 50 mM NaCl, 0.1 mg/mL BSA, pH 8, 1% DMSO; Ki by global fit of competitive inhibition for 1, 11, 24, 28, 31, 33, 34, else from IC50 by Cheng-Prusoff (substrate 20 μM); details: both partners purified
[5] = molecular target: T1, LSD1_(172-833), lysine-specific …; assay: cell-based or functional assay
[6] = molecular target: T2, LSD1_(172-833), lysine-specific …; assay: cell-based or functional assay; remark: listed apart in the source
[7] = molecular target: T2, LSD1_(172-833), lysine-specific …; assay: cell-based or functional assay; remark: listed apart in the source
[8] = molecular target: T2, LSD1_(172-833), lysine-specific …; assay: enzyme inhibition kinetics (HRP-coupled fluorescence demethylation assay); 25 nM LSD1, substrate H3K4me1_(1-21), 25 mM Tris, 50 mM NaCl, 0.1 mg/mL BSA, pH 8, 1% DMSO; Ki by global fit of competitive inhibition for 1, 11, 24, 28, 31, 33, 34, else from IC50 by Cheng-Prusoff (substrate 20 μM); details: both partners purified; remark: listed apart in the source

B1: H3_(1-7) K4M (peptide 6) (peptide)
peptide: ARTMQTA
In the case of B1, the Kd [1] is reported as greater than 200 µM.

B2: H3_(1-11) with L-homophenylalanine at position 4 (peptide 17) (peptide)
chain: ART[hPhe]QTARKST-NH2
For B2, the Kd [2] was greater than 200 µM.

B3: H3_(1-11) K4 (peptide 9), wild-type 11-mer (peptide)
peptide: ARTKQTARKST-NH2
With B3 the Kd [1] was greater than 100 µM.

B4: A1P-substituted H3_(1-11) K4M (peptide 11) (peptide)
peptide: PRTMQTARKST-NH2
For B4, the Kd [3] was 10 µM and the Ki [4] was 8 µM.

B5: H3_(1-11) K4M (peptide 4) (peptide)
peptide: ARTMQTARKST
B5 was tested, and the “IC50 of inhibition of LSD1 demethylation of H3_(1-21) K4(Me), enzyme activity assay” value [5] was greater than 100 µM.

B6: H3_(1-15) K4M (peptide 2) (peptide)
peptide: ARTMQTARKSTGGKA
B6 showed a Kd [1] of 5 µM.

B7: stapled peptide 21 (Thr3-Thr6 cyclization, 4-carbon olefin bridge) (peptide)
chain: AR[AllylGly]MQ[AllylGly]ARKST-NH2
modifications: staple 3-6
For B7, the “% inhibition of LSD1 demethylase activity at 100 μM peptide” value (shortened to “% inhibition”) [6] was 95%.

B8: triazole 35 (triazole-bridged H3_(1-11) K4M, azidolysine at 3, propargylglycine at 6) (peptide)
chain: AR[Lys(N3)]MQ[Pra]ARKST-NH2
modifications: triazole 3-6
With B8 the “% inhibition” value [7] was less than 30% and the Ki [8] was greater than 100 µM.

B9: lactam 33 (Arg2Cit-substituted analogue of peptide 28) (peptide)
chain: A[Cit]EMQKARKST-NH2
modifications: lactam 3-6
In the case of B9, the “% inhibition” value [7] is reported as 97% and the Ki [8] is reported as 4.2 µM.

B10: H3_(2-21) K4M (peptide 7) (peptide)
peptide: Ac-RTMQTARKSTGGKAPRKQLA
For B10, the Kd [1] was 45 µM.

B11: triazole 36 (triazole-bridged H3_(1-11) K4M, propargylglycine at 3, azidolysine at 6) (peptide)
chain: AR[Pra]MQ[Lys(N3)]ARKST-NH2
modifications: triazole 3-6
With B11 the “% inhibition” value [7] was 70% and the Ki [8] was 30 µM.

B12: H3_(1-11) with 2-S-amino octanoic acid at position 4 (peptide 16) (peptide)
chain: ART[Aoc(2)]QTARKST-NH2
In the case of B12, the Kd [2] is reported as greater than 200 µM.

B13: lactam 34 (Arg8Cit-substituted analogue of peptide 28) (peptide)
chain: AREMQKA[Cit]KST-NH2
modifications: lactam 3-6
With B13 the “% inhibition” value [7] was 97% and the Ki [8] was 8 µM.

B14: peptide 18, linear precursor of 19 (allylglycine at positions 1 and 3 of H3_(1-11) K4M) (peptide)
chain: [AllylGly]R[AllylGly]MQTARKST-NH2
In the case of B14, the “% inhibition” value [6] is reported as 98%.

B15: H3_(1-13) K4M (peptide 3) (peptide)
peptide: ARTMQTARKSTGG
B15 was tested, and the Kd [1] was 36 µM.

B16: H3_(1-9) K4M (peptide 5) (peptide)
peptide: ARTMQTARK
In the case of B16, the Kd [1] is reported as greater than 200 µM.

B17: stapled macrocycle 26 (stereoisomer of 23, D-pentenyl glycine at 3 and 6) (peptide)
chain: AR[dNle(6-ylidene)]MQ[dNle(6-ylidene)]ARKST-NH2
modifications: staple 3-6
B17 was tested, and the “% inhibition” value [6] was 90%.

B18: stapled macrocycle 23 (8-carbon olefin bridge between residues 3 and 6) (peptide)
chain: AR[Gly(pent-4-enyl)]MQ[Gly(pent-4-enyl)]ARKST-NH2
modifications: staple 3-6
In the case of B18, the “% inhibition” value [6] is reported as 75%.

B19: stapled peptide 19 (Ala1-Thr3 cyclization, 4-carbon olefin bridge) (peptide)
chain: [AllylGly]R[AllylGly]MQTARKST-NH2
modifications: staple 1-3
With B19 the “% inhibition” value [6] was 100%.

B20: peptide 22, linear precursor of 23 (pentenylglycine at positions 3 and 6 of H3_(1-11) K4M) (peptide)
chain: AR[Gly(pent-4-enyl)]MQ[Gly(pent-4-enyl)]ARKST-NH2
B20 was tested, and the “% inhibition” value [6] was 100%.
